Blank lines part the entries; values can stand above or below the binder they belong to.
Key:
mouse albumin [1] = biological target: T1, mouse albumin (Mus musculus, UniProt P07724); assay: ELISA
Human serum albumin [2] = biological target: T2, Human serum albumin (Homo sapiens, UniProt P02768); assay: SPR
mouse albumin [3] = biological target: T1, mouse albumin; assay: pull-down
[4] = biological target: cynomolgus monkey albumin (Macaca fascicularis, UniProt A2V9Z4); assay: pull-down
Human serum albumin [5] = biological target: T2, Human serum albumin; assay: pull-down

T1 sequence (P07724 25-608): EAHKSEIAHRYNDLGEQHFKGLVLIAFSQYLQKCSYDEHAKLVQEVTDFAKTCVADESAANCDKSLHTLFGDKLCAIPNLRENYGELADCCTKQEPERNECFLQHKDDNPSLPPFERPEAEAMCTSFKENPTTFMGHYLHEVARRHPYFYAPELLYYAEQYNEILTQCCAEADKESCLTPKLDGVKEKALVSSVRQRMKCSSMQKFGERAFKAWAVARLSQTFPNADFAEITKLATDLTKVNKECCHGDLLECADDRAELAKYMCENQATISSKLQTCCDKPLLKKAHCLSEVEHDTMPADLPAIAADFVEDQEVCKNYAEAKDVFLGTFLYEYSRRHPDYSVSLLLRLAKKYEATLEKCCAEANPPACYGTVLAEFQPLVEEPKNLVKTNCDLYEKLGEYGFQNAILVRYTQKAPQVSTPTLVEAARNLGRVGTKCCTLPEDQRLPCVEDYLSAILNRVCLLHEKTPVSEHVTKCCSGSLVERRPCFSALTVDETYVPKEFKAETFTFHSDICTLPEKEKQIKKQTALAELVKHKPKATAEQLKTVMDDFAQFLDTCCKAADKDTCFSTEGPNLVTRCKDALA
Chain of cynomolgus monkey albumin (A2V9Z4 25-608): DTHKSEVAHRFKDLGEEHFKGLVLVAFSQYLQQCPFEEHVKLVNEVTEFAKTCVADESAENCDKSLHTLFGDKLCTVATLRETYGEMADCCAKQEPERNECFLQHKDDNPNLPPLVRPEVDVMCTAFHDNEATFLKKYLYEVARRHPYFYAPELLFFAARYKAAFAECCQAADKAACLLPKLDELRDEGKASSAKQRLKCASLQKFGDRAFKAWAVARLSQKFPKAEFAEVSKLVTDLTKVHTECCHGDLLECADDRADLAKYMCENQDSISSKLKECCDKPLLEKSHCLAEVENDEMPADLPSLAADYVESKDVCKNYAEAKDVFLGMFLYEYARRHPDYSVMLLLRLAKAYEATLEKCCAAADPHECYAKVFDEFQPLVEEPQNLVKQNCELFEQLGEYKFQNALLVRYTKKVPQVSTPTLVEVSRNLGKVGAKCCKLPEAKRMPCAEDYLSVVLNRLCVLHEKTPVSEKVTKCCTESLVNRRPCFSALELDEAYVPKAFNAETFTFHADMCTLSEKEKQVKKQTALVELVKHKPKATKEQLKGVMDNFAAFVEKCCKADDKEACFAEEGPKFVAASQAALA

Kd (Human serum albumin [2]): 201 pM
B4: Nb13 (VHH)
VHH: HVQLVESGGELVQAGGSLRLSCAASGRTFSNYAMGWFRQAPGTEREFVAAISRSGGSTYYADSVKGRFIISRDNAKNTVWLQMNMLKPEDTSVYYCAAAEGLASGSYDYAPPLKSSWYDYWGQGTQVTVSE

binding result (mouse albumin [3]): binds
binding result [4]: binds
binding result (Human serum albumin [5]): binds
B5: Nb132 (VHH)
VHH: HVQLVESGGGLVQAGGSLRLSCAASGGTISNYGMGWLRQGPGKEREFVGSINWNGATTHYADSVKGRFIISRDNAKNTVYLQMNSLKPEDTGVYYCVAQFSVQPTLRTYDYGGQGTQVTVSE

The remaining lines, values behind:

B1: Nb80 (VHH)
VHH: EVQLVESGGGLVQAGGSLRLSCTASGRTFTPYTMGWFRQAPGKEREFVASILWSGNNRDYADSVKGRFAISRDNAKNTAYLQMTSLKPEDTAVYYCAAGDGLGFYRSVNQYDYWGQGTQVTVS
binding result (mouse albumin [1]): binds
Kd (Human serum albumin [2]): 166 pM

B2: Nb126 (VHH)
VHH: QVQLVESGGGLVQAGGSLRLSCAASGLTFSNYVMGWFRQAPGKEREFVAYIHWSGGRILYADSVKGRFTISRDNTKNTMYLQMNSLKPDDTAVYYCTADQYATTVLRAAGEYWGQGTQVTVSE
Kd (Human serum albumin [2]): 251 pM

B3: Nb77 (VHH)
VHH: QVQLVESGGGLVQAGGSLRLSCTASGRTYEPLVMGWFRQAPGKEREFVATITPSGGSLSYADSVKGRFTVSRDNAKKTVYLQMNRLQPEDTAVYYCAAAPGVGNYRYTRQYDYWGQGTQVTVSE
binding result (mouse albumin [1]): binds

Source: doi:10.1101/2020.08.19.257725 (bioRxiv, 2020)
